Source: patent publication US20140193434A1 (TORAY INDUSTRIES, published 2014)

B1: human-mouse chimeric comparative monoclonal antibody 7 (antibody, human IgG1, kappa, V domains shown)
VH: LQESGAELARPGASVKLSCKASGYTFTSYWMQWVKQRPGQGLEWIGAIYPGDGDTRYTQKFKGKATLTADKSSSTAYMQLSSLASEDSAVYYCARGEYGNYFAYWGQGTTVTVSS
VL: TSDASLGERVTITCKASQDINSYLSWFQQKPGKSPKTLIYRANRLVDGVPSRFSGSGSGQDYSLTISSLEYEDMGIYYCLQYDEFPLTFGGGTKLEIKQ
B2: human-mouse chimeric comparative monoclonal antibody 3 (antibody, human IgG1, kappa)
heavy: not shown
light: RTTSHMDSDIQLTQSPASLSASVGETVTITCRASGNIHNYLAWYQQKQGKSPQLLVYNAKTLADGVPSRFSGSGSGTQYSLKINSLQPEDFGSYYCQHFWSTLTFGGGTKLEIKQSDTVAAPSVFIFPPSDEQLKSGTASVVCLLNNFYPREAKVQWKVDNALQSGNSQESVTEQDSKDSTYSLSSTLTLSKADYEKHKVYACEVTHQGLSSPVTKSFNRGEC
B3: human-mouse chimeric comparative monoclonal antibody 1 (antibody)
heavy: not shown
light: DIQMTQSPASLSASVGETVTITCRASGNIHNYLAWYQQKQGKSPQLLVYNAKTLADGVPSRFSGSGSGTQYSLKINSLQPEDFGSYYCQHFWSTLTFGAGTKLELKRTVAAPSVFIFPPSDEQLKSGTASVVCLLNNFYPREAKVQWKVDNALQSGNSQESVTEQDSKDSTYSLSSTLTLSKADYEKHKVYACEVTHQGLSSPVTKSFNRGEC
B4: human-mouse chimeric comparative monoclonal antibody 4 (antibody, human IgG1, kappa, V domains shown)
VH: EVQLHQFGAELVKPGASVKISCKASGYTFTDYNMDWVKQSHGKSLEWIGDINPNYDSTSYNQKFKGKATLTVDKSSSTAYMELRSLTSEDTAVYYCARSRSYDYEGFAYWGQGTLVTVSA
VL: SGDRVSLSCRASQSISNYLHWYQQKSHESPRLLIKYASQSISGIPSRFSGSGSGTDFTLSINSVETEDFGMYFCQQSNSWPYTFGAGTKLEIKQ

Target: T1, human CAPRIN-1 protein on the cell membrane surface of human cancer cell lines (human, UniProt Q14444 2-709)
T1 sequence (looked up): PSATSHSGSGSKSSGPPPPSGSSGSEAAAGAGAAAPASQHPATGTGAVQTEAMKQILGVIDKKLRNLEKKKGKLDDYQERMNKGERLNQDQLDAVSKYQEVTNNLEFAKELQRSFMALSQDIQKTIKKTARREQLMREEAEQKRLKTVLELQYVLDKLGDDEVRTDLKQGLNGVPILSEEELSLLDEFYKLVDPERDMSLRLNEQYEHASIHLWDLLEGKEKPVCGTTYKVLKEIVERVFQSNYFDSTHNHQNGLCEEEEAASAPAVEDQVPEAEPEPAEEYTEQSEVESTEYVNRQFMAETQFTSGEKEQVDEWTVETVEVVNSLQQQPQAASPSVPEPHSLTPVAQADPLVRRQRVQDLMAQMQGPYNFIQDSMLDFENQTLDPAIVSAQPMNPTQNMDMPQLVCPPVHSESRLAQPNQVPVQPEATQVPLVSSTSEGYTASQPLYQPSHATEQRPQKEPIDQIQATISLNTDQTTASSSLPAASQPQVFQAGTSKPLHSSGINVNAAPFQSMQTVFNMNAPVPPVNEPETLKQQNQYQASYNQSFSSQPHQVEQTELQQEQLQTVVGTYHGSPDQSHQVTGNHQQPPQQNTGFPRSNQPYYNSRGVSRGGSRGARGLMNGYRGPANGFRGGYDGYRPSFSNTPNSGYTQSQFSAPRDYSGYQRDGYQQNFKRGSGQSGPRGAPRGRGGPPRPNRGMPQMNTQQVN
Experiment: cell-based or functional assay

Row | Binder | cytotoxic activity (ADCC, chromium 51 release) against MCF7, HCT-116, MIAPaCa-2, Caki-2 and QG56
1 | B1 | < 5%
2 | B2 | < 5%
3 | B3 | < 5%
4 | B4 | < 5%
